Laboratory results taken from patent US20230210946A1, “TREATMENT OF CANCER” (Immutep S.A.S., priority 2020, published 2023).

Columns and labels:
Format in all cases: in vivo, human
[1] = AIPAC: quality of life (QoL); conditions: at week 25
Excerpt: (§1) Secondary Outcome Measures: • 1. […] Assessment of the overall survival (OS) • 3. […] Evaluation of the time to next treatment • 6. Evaluation of objective response rate (ORR) • 7. Evaluation of stable disease

[2] = Pharmacokinetics of s.c. IMP321 in metastatic renal cell cancer patients
[3] = test system: HER2 negative hormone receptor-positive metastatic breast cancer; experiment: AIPAC Phase IIb study: best overall response acc. to RECIST 1.1 by BICR (ORR, DCR); conditions: entire patient population
Procedure: (§2) A Phase IIb clinical study was carried out to investigate the safety and efficacy of the active immunotherapy IMP321 in combination (adjunctive) with paclitaxel chemotherapy in patients with HER2 negative hormone receptor-positive metastatic breast cancer.
(§3) A multicentre, placebo-controlled, double-blind, 1:1 randomised Phase IIb study in female HER2 negative hormone receptor-positive metastatic breast cancer patients was conducted. The study comprised two stages: • stage 1 which was an open-label, safety run-in stage consisting of cohorts 1 and 2 to confirm the recommended Phase II dose (RPTD) of IMP321 in combination with paclitaxel; and • stage 2 which was a placebo-controlled, double-blind randomisation stage, paclitaxel+IMP321 at the RPTD compared to paclitaxel+placebo.
(§4) Paclitaxel+IMP321 at the RPTD of 30 mg (114 patients):
(§5) The chemo-immunotherapy phase consisted of 6 cycles of 4 weeks. Patients received weekly paclitaxel at Days 1, 8 and 15 with adjunctive treatment of study agent (IMP321) on Days 2 and 16 of each 4-week cycle. After completion of the 6-cycle chemo-immunotherapy phase, responding or stable patients received study agent (IMP321) every 4 weeks during the maintenance phase for an additional period of up to 12 injections.
(§6) Active Comparator: Paclitaxel+Placebo (112 patients):
The chemo-immunotherapy phase consisted of 6 cycles of 4 weeks. […]

[4] = test system: HER2 negative hormone receptor-positive metastatic breast cancer; experiment: AIPAC Phase IIb study: overall survival (OS)
Procedure: as §2, §3, §4, §5, §6
(§7) The chemo-immunotherapy phase consisted of 6 cycles of 4 weeks. Patients received weekly paclitaxel at Days 1, 8 and 15 with adjunctive treatment of study agent (placebo) on Days 2 and 16 of each 4-week cycle. After completion of the 6-cycle chemo-immunotherapy phase, responding or stable patients received study agent (placebo) every 4 weeks during the maintenance phase for an additional period of up to 12 injections.
as §1

[5] = test system: HER2 negative hormone receptor-positive metastatic breast cancer; experiment: AIPAC Phase IIb study: progression-free survival (PFS); conditions: investigator read; for PFS absolute gain / PFS Hazard Ratio: vs paclitaxel + placebo
Procedure: as §2, §3, §4, §5, §6, §7
Primary Outcome Measures: • 1. Stage 1 to determine the recommended phase two dose (RPTD) for the randomised phase • 2. Assessment of Progression-Free Survival (PFS)

[6] = Safety of s.c. IMP321 doses

B1: IMP321: recombinant soluble human LAG-3Ig fusion protein, 160-kDa dimer: extracellular domain of hLAG-3 fused to the human IgG1 Fc (protein)
chain: LQPGAEVPVVWAQEGAPAQLPCSPTIPLQDLSLLRRAGVTWQHQPDSGPPAAAPGHPLAPGPHPAAPSSWGPRPRRYTVLSVGPGGLRSGRLPLQPRVQLDERGRQRGDFSLWLRPARRADAGEYRAAVHLRDRALSCRLRLRLGQASMTASPPGSLRASDWVILNCSFSRPDRPASVHWFRNRGQGRVPVRESPHHHLAESFLFLPQVSPMDSGPWGCILTYRDGFNVSIMYNLTVLGLEPPTPLTVYAGAGSRVGLPCRLPAGVGTRSFLTAKWTPPGGGPDLLVTGDNGDFTLRLEDVSQAQAGTYTCHIHLQEQQLNATVTLAIITVTPKSFGSPGSLGKLLCEVTPVSGQERFVWSSLDTPSQRSFSGPWLEAQEAQLLSQPWQCQLYQGERLLGAAVYFTELSSPG
modifications: left off: small tags and cut ends; a dimerising Fc or GST
notes: recombinant soluble human LAG-3Ig fusion protein, 160-kDa dimer: extracellular domain of hLAG-3 fused to the human IgG1 Fc
- deterioration in Quality of Life (QoL) [1]: not observed
- systemic exposure ([2]; doses of 6-30 mg per s.c. injection, metastatic renal cell cancer patients): acceptable systemic exposure
- blood concentration of IMP321 ([2]; for at least 24 hours after s.c. injection, doses of more than 6 mg): > 1 ng/mL
- Progressive disease [3]: fewer patients with immediate progression
- Median OS ([4]; Luminal B type, investigator read): 16.3 months
- OS absolute gain ([4]; Luminal B type, investigator read, vs paclitaxel + placebo): +3.8 months
- Median OS ([4]; age < 65 years, investigator read): 21.9 months
- OS absolute gain ([4]; age < 65 years, investigator read, vs paclitaxel + placebo): +7.1 months
- OS Hazard Ratio [95% CI] ([4]; entire patient population, investigator read, vs paclitaxel + placebo): 0.83
- gain in median OS ([4]; entire patient population, vs paclitaxel + placebo): 2.7 months
- Median OS ([4]; low (<0.25 × 10^9/L) monocytes at baseline, investigator read): 22.4 months
- OS absolute gain ([4]; low monocytes at baseline, investigator read, vs paclitaxel + placebo): +9.4 months
- Median OS ([4]; with prior CDK4/6 therapy, investigator read): 20.2 months
- OS Hazard Ratio ([4]; with prior CDK4/6 therapy, investigator read, vs paclitaxel + placebo): HR 0.84
- Median OS ([4]; without prior taxane therapy, investigator read): 21.4 months
- OS Hazard Ratio ([4]; without prior taxane therapy, investigator read, vs paclitaxel + placebo): HR 0.69
- PFS median ([5]; Luminal B type): 7.2 months
- PFS absolute gain ([5]; Luminal B type): +1.7 months
- Median PFS ([5]; age < 65 years): 7.2 months
- PFS absolute gain ([5]; age < 65 years): +1.7 months
- PFS median ([5]; low (<0.25 × 10^9/L) monocytes at baseline): 7.5 months
- PFS absolute gain ([5]; low monocytes at baseline): +2.3 months
- Median PFS ([5]; with prior CDK4/6 therapy): 5.6 months
- PFS Hazard Ratio ([5]; with prior CDK4/6 therapy): HR 1.02
- PFS absolute gain ([5]; with prior CDK4/6 therapy): −1.1 months
- Median PFS ([5]; without prior taxane therapy): 7.2 months
- PFS Hazard Ratio ([5]; without prior taxane therapy): HR 0.88
- PFS absolute gain ([5]; without prior taxane therapy): +1.7 months
- safety ([6]; doses of 6-30 mg per s.c. injection): safe
- dose limiting toxicity ([6]; to date): No dose limiting toxicity has been observed
